Assay results reported in US20120070432A1, “TREATMENT OF PANCREATIC CANCER USING A DR5 AGONIST IN COMBINATION WITH GEMCITABINE” (AMGEN INC., priority 2009, published 2012).

Assays:
[1] = system: patients with advanced solid tumors; conditions: cited from earlier work
[2] = system: patients with previously untreated metastatic pancreatic cancer; assay: Multi-center phase I trial of AMG 655 + gemcitabine; type: in vivo
Source text: Example 2 describes the treatment of patients with metastatic pancreatic cancer with AMG 655 in combination with gemcitabine.
Conatumumab (AMG 655) is an investigational, fully human agonist monoclonal antibody (IgG1) that binds human death receptor 5 (DR5), activates caspases, and induces apoptosis in sensitive tumor cells. In a multi-center phase I trial to evaluate AMG 655 +gemcitabine in metastatic pancreatic patients. The primary endpoint was dose-limiting toxicity (DLT). Secondary endpoints included toxicity, pharmacokinetics, antibody formation, objective response rate, progression-free survival (PFS), 6-month and overall survival.
Eligible patients had previously untreated metastatic pancreatic cancer and ECOG PS (Eastern Cooperative Oncology Group Performance Status) 0 or 1. Patients were enrolled into sequential cohorts and received AMG 655 3 or 10 mg/kg IV days (D) 1 and 15 and gemcitabine 1000 mg/m^2IV D 1, 8, and 15 every 28 D. CT scans were obtained Q2 cycles.

[3] = system: pancreatic cancer patients; conditions: gemcitabine alone, Moore et al.; cited from earlier work
[4] = dose cohorts 0.3, 1 and 3 mg/kg
[5] = of 13 patients with tumor-response data

## AMG 655: fully human monoclonal agonist antibody (IgG1) that binds human death receptor 5 (DR5); CAS Registry Number 896731-82-1
[1]; 0.3, 1, 3, 10 or 20 mg/kg IV Q2W, 16 patients
  DLTs: No DLTs
[1]; 0.3-20 mg/kg IV Q2W, 16 patients
  AMG 655-related serious AEs: No
[1]; 0.3-20 mg/kg IV Q2W
  MTD: not reached
[1]; NSCLC patient with partial response
  reduction in tumor volume by RECIST: 46%
[1]; NSCLC patient, remains on study
  time on study of partial responder: > 48 weeks
[1]; NSCLC, tumor-response data for 13 patients
  partial response: 1 patient
[1]; both in the same patient, 0.3-mg/kg cohort
  grade 3 or higher AMG 655-related AEs: Fatigue and elevated serum lipase
[1]; colorectal cancer patient with stable disease, metabolic partial response (FDG-PET)
  reduction in maximum standardized uptake value (SUVmax): 34%
[1]; [4]
  half-life: ~240 h
  kinetics (dose linearity): dose-linear kinetics
[1]; monotherapy
  anti-AMG 655 antibodies: No anti-AMG 655 antibodies were detected
[1]; [5]
  progressive disease: 8 patients
  stable disease: 4 patients
[1]; of 16 patients
  patients reporting AMG 655-related AEs: Nine
  treatment-related AE: fatigue: 3 patients
  treatment-related AE: hypomagnesaemia: 3 patients
  treatment-related AE: pyrexia: 4 patients
[1]; up to 20 mg/kg Q2W
  tolerability: well tolerated
[2]; in combination with gemcitabine
  anti-AMG 655 antibodies: No anti-AMG 655 antibodies were detected
[2]; preliminary data
  effect of AMG 655 on pharmacokinetic (PK) of gemcitabine: no effect

## Nc1ccn([C@@H]2O[C@H](CO)[C@@H](O)C2(F)F)c(=O)n1 [gemcitabine]
[3]
  median overall survival (50% survival): approximately 6 months
  survival at 1 year: 17%
